Assay: soluble on expression in E. coli; label from the status in PepcDB or PDB records

Soluble on expression in E. coli, not soluble:
MGSDKIHHHHHHMSHHIEDLLNAWSAAPQDDWVLAVVTHVEGSAYRKVGAMMLIHGMGKSVGLVSGGCLEADLRRRAQKVIQTGQAASVCYDATDEADASYQLGCGGLVHLMLLPLCAANHYLHFQALKAALASQGRCHYQLMLTDESLSPGSLGAKVWTSQQALDDAKAGWQLSDFPRPGILQGQSMQGETVRGQSLQDESVQGESASLVVPLREHHRIAIFGGGLDAQPVCQIAQQLGWRVDVVDRRTSYAREYDFVGANIIKLPVSELPKNFWTRLDGAIVMQHNLELDAKALAAIHQHAKQLSYLALLGPGHRRDRVLALAGLEVASFGAYFSAPAGLALGGELPSSIALSILSECHGVLHGAKRVALKEVMA
MGSDKIHHHHHHMSHIIKIFPSNIEFSGREDESILDAALSAGIHLEHSCKAGDCGICESDLLAGEVVDSKGNIFGQGDKILTCCCKPKTALELNAHFFPELAGQTKKIVPCKVNSAVLVSGDVMTLKLRTPPTAKIGFLPGQYINLHYKGVTRSYSIANSDESNGIELHVRNVPNGQMSSLIFGELQENTLMRIEGPCGTFFIRESDRPIIFLAGGTGFAPVKSMVEHLIQGKCRREIYIYWGMQYSKDFYSALPQQWSEQHDNVHYIPVVSGDDAEWGGRKGFVHHAVMDDFDSLEFFDIYACGSPVMIDASKKDFMMKNLSVEHFYSDAFTASNNIEDNL
MGSDKIHHHHHHMSIDFYNQNASSFYASTVEVDSSSLLEQFTPYLPKGGSVLDAGCGSGRDSKRLIELGFHVDAFDASAALATLAQQLLGKPVRVATFMQFTSTLQYDGIWACASLLHVSKASLPDAFAHLASMLKSGGAFYCSFKYGQGEVERDGRSFTHCDEALLAELLTGSPLVIDKVWLTTDLRVGRENEQWLNAVLLKR
MGSDKIHHHHHHMSIDYSQKIPNNVNLADDRALQRALEHWQPAFLDWWRDMGPEGSHNFDVYLRTAVSVDPSGWAHFEHVKMPDYRWGIFLQPADPARQIHFGEHKGEAAWQDVPGEHRANLRRIIVTQGDTEPASVEQQRHLGLTAPSLYDLRNLFQVNVEEGRHLWAMVYLLHRYFGRDGREEAEALLDRRSGDQDNPRILGAFNERTPDWLSFFMFTYFTDRDGKFQLCALAESGFDPLARTTRFMLTEEAHHMFVGESGVSRVIQRTCEVMRERDIRDPADVRAAGVIDLETIQRYLNFHYSVTIDLFGADQSSNAATFYSAGLKGRFEEGKRTDDHVLKSDVYRVLEVRDGQLGEREVPMLNALNEVLRDDYIRDSIGGVARWNKVIEKHGIPFKLTVPHKAFNRKIGTLSNVHVSPTGELLTEAQWQANERNWLATEEDRAYVASLMGRVTEPGKYANWIAPPAVGVNRQPMDFEYVRFN
MGSDKIHHHHHHMSIPLAFIICTEPGRLESQSLMLASSIRKFCGNLKDTPIYSFHPRVGEPISHQTQEAFAALQVIHQQIPINQEFHEYYLANKPLVCAYAEQNIDAEILVFLDSDKCLFAEPTEFLLPENCNVRVRPEYGQGIGSTGSQDPQEWYWQRLYQVLGVKREIFVNTPIGNKRIRAYWNSGLVAVRRSAGIFTAWKENFTKVMHLDITPPQGIYFVEQSVLSVTLCALVDNIEHFSLNYSYPLPLHNRLSPELRLQDWDDITSIHYFNLFFYNDWNTQIKKLKKFNITSDKYKWLSQEVVRLNMSRTSVLHRYMLAIRRIEQKLQKFNIKINLSSLIEKTAKF
MGSDKIHHHHHHMSIRIGISGWRYARWRGTFYPTGLAQRRELAYAGRCFPSVEINGSFYSLQRPESYQSWHDETPDDFVFAVKGPRFVTHMKRLRDCEQALANFFASGVLRLGEKLGPILWQLPPTLRFDDAVLDAFLSSLPRDTEAALALARKRDTTLMHGRTALSIDRKRPLRHALEMRHPSFCDPSCMKLLRKHKVGVVVADTAGKFPYLEDVTADFVYLRLHGDAQLYASGYSDHALDRWGERIAAWAAGGEPSDAQRVGPRASKRARRDVYCYFDNDMKVHAPFDARGLMQRLDLPTDCPAREEVV
MGSDKIHHHHHHMSKGTIRVLQLYPRDMNIYGDWGNALVLQQRLRWHGYTPELLEYNVGDEFPAGVDLIVGGGGQDSGQLVIQDDLLSRESTLKELAEAGTPMLLICGMYQLFGKFFKTRTGSVIPGIGVLDVETHGTDERLIGNVTVSSPEFGDVLGYENHSGQTTLGPGVRPLGSTPKGIGNNSKDGQEGARYRNIVASYLHGSLLPKNPAIADFLIRTAVERKYGSFTPGAPDDRYAVMAREHAARRPR
MGSDKIHHHHHHMSLAVTYTRAMIGVQAPDVYIEVHISSGLPALTLVGLPETTVKEARDRVRSALINCGFTFPAKRITVNLAPADLPKEGGRYDLPIALAILAASEQIDGEKLNRYEFLGELGLSGTLRGVNGAIPAALEAIKAGRQLILPDDNKREMTLIPQGEALMAGHLLQVCAFLSGEEELLSCSDMTPVPQPAEDTLDLKDIIGQEQAKRALEIAAAGGHNLLLLGPPGTGKTMLASRLGNLMPPLSDEEALESAAINSLINIDATMTRWRARPFRAPHHSSSMAALVGGGSLPKPGEISLAHNGVLFLDELPEFERRVLDSLREPLESGEIIISRTRAKVCYPARVQLVAAMNPSPSGHYQGIHNRLPAQQILRYLSKLSGPFLDRFDLSIEVPLLPPGVLSQQHYQGESSATIRERVLIARQIQLKRANKINALLTSREIERHCKLEMADAAYLEDVMNKLGLSVRAWHRILKVARTIADLGDRDNIEKKHLAEALSYRCMDRLLIQLHKSLE
MGSDKIHHHHHHMSLPLYQQISDDLKQKIVTKTFKSGDQLPTEKELSETYSVSRITAKRALTELEQLGLVSRTRGKGTFVQELNKNHTKLLKRVLFIIPFEGMSFGDFTQGLVPALKVENTTVFITYESYLKENTADDIKENFDGLIYYPMYTEDYLDILLELSLQNFPVVLLDKQIYDLGFPCVSSDNFNGGEQAAQALLNLGHKRIAFVASNDTHHPQTTRNRYLGYVKVLKEQGIKFHTTLDDSLYTESSVLELIHNEKVTGLICENDLVALQTMKTLQDSHFSVPNDISIIGFDDIQAASLSNPPLTTIAQDFIGMGRIAGELLLDWIKSGQTPKDVKVPINLIKRKTTEELK
MGSDKIHHHHHHMSLSRLSIDAFRNIDSAQLAPGAGLNLIYGHNGSGKTSILEAIYFLGMGRSFRSHLSQRVIQNDADCLTLFAVAEGQAGDSRIGLRRHRSGDTEVKIDGEKVKRLSQLAEALPIQVITPESFSLLFEGPSARRQFIDWGAFHASKQFHLAWMNTRRILKQRNQLLRDGASYEHIAFWDKELIRYALEVTAIRNDYVGSLNGVLKGIIGEFLPDVDIRVSFTRGWDSKTDFSELLQSQYARDLAIGHTVSGPHKADLRLRVGNLPAQDALSRGQLKLLVCALRIAQGKLLKQQIDKHSIYLVDDLPSELDAKHRQLLLKELIDTGAQLFVTAIEPSAIVDSLPVPPDRMFHVQAGRVTQTK
MGSDKIHHHHHHMSLTNVLFLAEELRVGGAETYFYKIENKIDLKKINFYTAAVNGRCFDKLNNKHMYFEYEKGLFSKIKTIKKIVISKNINVIHANSLRLAIISSIVKKLYKKDLKIVYTKHNLTILEKIHTKLFSAFVNKNVDIVLAVCNKDRDNMISIGVSEEKVKVIPNSIDLKHFKFNSKYLRDAGKDFKVGMLSRLSKEKNHEFFLDIAEKADFRALIGGDGPLREEINNRIEKSNLKKKVKMLGNIENSYEFLSSVDVMLLVSTREIFPMTLLEAMAVGTIVISVDIGGIRDCVINDKTGYVIDDYQSEKFITKISDILSDYDKNKELISAARELVENSFNLDITIDELQRLYGEVGL
MGSDKIHHHHHHMSNIKVLIQASSRSWAGGRDICMGLVNGEITVARTIKRALEAFPAAQLCLVAPEFDQDGELGGVIEYVKDKRLKAFYGFDESPLKRMIAASIELADNDYIVRIDGIHFCFDVDLSQKMLALALQKKLDCIKLPADFPVHFSSEVFRVGALRELVKLLDKPELEKFNIHPKIYFELNRYNYNFEYLRTLPQYSDEYLSECRKLAKDIYDIPRLEVGSKRTIWADTPSYHYQLALEYLNSNMKVLDIACGNGYGVRMMSTFLAEVHGADLDPEIINLAKAYTHEKNVEYYIEDITNLSFEDDSYDAVTCFETLEHIPEDDCLKELRRIIRPGGMLVLSTPQNSYGHIPVNACHIVEYSLDALLKLVGRYFLVVKVIGIKAGTIHSDADPYGTNTVLVCIKPF
MGSDKIHHHHHHMSNISEIVVELFKEASIYLPDDVKSKLKHAEEVECGACKDTLQAIELNNKIAETKQIPLCQDTGVPVIFLKIGTGISSERIIEIIKEIESGVKRATAEVPLRPNVVNPITRENLGTNTGMGAPFINFEFSENLNNEIEISVFPKGAGSENMSALKMLTPSEGLMGIKKFILETVANAGGKPCPPIVLGIGIGGTADISLKLAKKALLRDIGNRNPEKTIENLEKELLDSINQLGIGTMGLGGKITALDVFIEVNGCHTASLPVGICIQCWADRKAKRKIKL
MGSDKIHHHHHHMSNQTLKKISELDVFCLMVFKVIFQTGHANIAAKQLNVSAPKISRCLNMLRATFDDELFYRRQLGLKPTPMAEFLYEPVCQFCEAVLKIEQSISEKSSELASERLRVAVTPSIMASLSLAFSRSNARDAFSQLQFVIWGDDSADQIHNGELDMGVTFDACNEHPLSVEALGCLSGVCLAANEEHAIWSQSEPLTLETICRHPFLCLDGKGFNDKIDPLEVFARQNGADIDSIERVSSRDEWYSHLLTMNSVAFLPCSEAEICGALPGIRVVRLSDEEVGRLHGESMSPQYLLLENPAEYRRYSLEQRELIIQLIKQLLVKC
MGSDKIHHHHHHMSQINASASGTYAFDDQFKVNRLGYGTMQLTGEGTWGPYDDPNNAVSVIKKAVDLGINFFDTADSYGPWFADRYLAEGLKSASNRDEIFISDKVGQTRQGPGVWTPHGEPNYLRQQVEVSLMTLGIDHEDLLFLHRIDSHFSVAEQVGELKKLQDEGKIKHIGLSQVTVGQIKEAQKYAKIDAVENLYNVSDHRDDDVLDYAESQHMAFVPWFPLNTEKLTGANSPLAKIANKYKASPAQIALAWLLKRSGNVLPIPGTSSVAHLEDNVAAASIKLSDDDFKAITNLGVSNR
MGSDKIHHHHHHMSQLDMKMKLKQYEQTVIEYLGAQGGHFIVASDDQTFVGILRTTLLKQLAISGDPLTSVTDPDYILKVIRDTSLRRKHLVVFIERMMQGKDTSMLVRQMKNTFANVKIIILTGETERQRLVLLHEIGADNFISKPISINTLIEKIAFTIKPQGKLGQLIDAAKALVAQGNFETALKAARKILEVKPNSAAGYLVMGDAWQGLGKLDKARESFEQASEHANLYMEPLKKLAELHKLTGDMNERLRYLERLDQLSPLNVERKVDMGEIHVELGNEERAEELFETAVQQATKDALNYIGEISEKIAAVYSSRDPHKAEKYYRQALDAKGSHLDHTDIATFNRLGIALRRQGKWQQAIEEYEKALHITPDDPNLMYNMSMAYAEGRQFDKACSIVMRIRQITPSFGSMDKTLSYNMGIIFSRGRQPADARVLFENALRLDPSFEKAQKALENLES
MGSDKIHHHHHHMSQLVRPTLELPAGRRKVLLHSCCAPCSGEVMEAMTASGIDYAIYFYNPNIHPVKEYEIRKNENIRFAEEHGIEFIDADYDMDNWFERVKGMENEPERGIRCTACFDMRFERTALYAHEHGFDTITSSLGISRWKDMNQINGCGERAAARYDDLVYWTYNWRKGGGSQRMIEISKRENFYQQEYCGCVYSLRDTNRHRRAQGRERIHLGVKFYGVEEKL
MGSDKIHHHHHHMSQQLTFADSEFSSKRRQTRKEIFLSRMENLLPWSQLLDVIEPFYPKVGNGRRPYPLETMFRIHCMQQWYSLSDEATEDALYEIASMRQFALLSLDKAIPDRTTIMNFRHLLEKHKLTRKLFKTVNQWLSDSGVMMTQGTLVDATIIEAPSSTKNKNNERDPDMHQTKKGNQWHFGMKAYIGVDAKSGLTHTLVTTAANEHDLNQLDNLLHGEEEFVSGDAGYQGAQKREELKDTNVEWLIAERPGKIRALKKRPRKNKTIINIEYLKASIRAKVEHPFRIIKCQFGFIKARYKGLMKNDSQLAMLFTLANLFTVDQMLRRQPRSV
